{"source": "paper doi:10.64898/2025.12.17.695035", "target": "E. coli RNAP as used in the ITC experiments (E. coli) (UniProt P0A7Z4)", "assay": "ITC", "data": [{"substance": "Escherichia phage protein EP1 (from UniProt A0A0N9RSC1 1-107) (natural protein)", "values": [{"measurement": "Kd", "value": 34, "unit": "nM"}]}]}
